Results as given in US20240124575A1 (SIMCERE ZAIMING PHARMACEUTICAL, published 2024).
Where two headings read alike, the source gives them in different places.

B1: C33B904 hIgG1 (antibody, V domains shown)
VH: EVQLVESGGGLVQPGRSLRLSCAASGFTFDDYAMHWVRQAPGKGLEWVSGIGWSGGSIVYADSVKGRFTISRDNAKNSLYLQMNSLRAEDTALYYCAKDSPYGDFFDYWGQGTLVTVSS
VL: DIVMTQSPDSLAVSLGERATINCKSSQTVFYSSNNKNYLAWYQQKPGQPPKLLISWASTRKSGVPDRFSGSGSGTDFTLTVSSLQAEDVAVYYCQHYYSTPYTFGQGTKLEIKR
notes: intact human IgG1; variable regions from US20190382481A1; also called C33B3904; C331B904
B2: C33B904 (antibody, human IgG1, kappa, V domains shown)
VH: B1 VH
VL: B1 VL
notes: control antibody, intact human IgG1 form; variable regions from US20190382481A1; also called C33B904 hIgG1; C331B904

Columns and labels:
[1] = biological target: T1, human CD33 on U937 cells (endogenous) (human, UniProt P20138 18-364); experiment: FACS, U937 cells
T1 construct: whole, on cells
Description: The desired cells were expanded to a logarithmic growth phase in a T-75 cell culture flask. For adherent cells CHO-K1, the culture medium was removed by pipetting, and the cells were washed twice with a PBS buffer, digested with trypsin, and washed twice with a PBS buffer again after the digestion was stopped. For suspension cells U937, the medium supernatant was discarded by direct centrifugation, and the cell pellet was washed twice with PBS, and then incubated with a buffer containing human Fc Block (purchased from BD, Cat. No. 564220) for 15 min. After the cells obtained in the last step were subjected to cell counting, the cell pellet was resuspended to 2×10⁶ cells/mL with a blocking solution [PBS+2% (w/w) BSA] and added to a 96-well FACS reaction plate at 50 μL/well. The VHH-Fc antibody (a sample to be tested) was added at 50 μL/well, and the plate was incubated on ice for 2 h. […] After the plate was centrifuged and washed 5 times with a PBS buffer, the results were assayed and analyzed by FACS (FACS Canto™, purchased from BD Biosciences), so as to obtain the mean fluorescence intensity (MFI) of cells. Then, analysis was performed by software (GraphPad Prism8), data were fitted, and EC50 values were calculated.

[2] = biological target: T2, human CD33-His (extracellular domain Asp 18-His 259) (human, UniProt P20138 18-259); experiment: competitive ELISA vs coated S006-NB146-1 2ug/mL; soluble 25ug/ml
T2 construct: range 18-259; bought protein; also called hCD33-his; human CD33 protein; not shown: His tag
Description: VHH antibodies and control antibodies with known epitopes were subjected to epitope classification with competitive ELISA. ELISA plates were coated with 2 μg/mL antibodies according to the method in Example 5.1; the human CD33-his protein was subjected to a gradient dilution from 30 μg/mL, and EC80 values (Tables 26-27) were calculated. ELISA plates were coated with 2 μg/mL antibodies; after 25 µg/mL of antibodies to be tested were added, a human CD33-his protein having an EC80 concentration corresponding to each of the antibodies to be tested was then added for incubation for 2 h. The plates were washed 5 times with PBS, then HRP-labeled anti-His antibodies (purchased from GenScript, Cat. No. A00612) were added for incubation for 1 h, and the plates were washed 5 times. A TMB substrate was added at 50 μL/well and incubated at room temperature for 10 min, then a stop solution (1.0 M HCl) was added at 50 μL/well. OD_{450 nm} values were read using an ELISA plate reader (Insight, purchased from PerkinElmer), and the competition rate between the antibodies was calculated according to the OD_{450 nm} values using a formula. The results are shown in FIGS. 12A-12B, the higher the value of the competition rate, the closer the epitopes to which two antibodies bind.

[3] = biological target: T3, human CD33-C2-his (human, UniProt P20138 136-260); experiment: ELISA on coated human CD33-C2-his
T3 construct: expressed in HEK293E; also called hCD33-C2-his; human CD33 protein C2-domain; not shown: His tag

[4] = biological target: T3, human CD33-C2-his; experiment: ELISA on coated human CD33-C2-his; remark: listed apart in the source
Source text: Plates were coated with human CD33-V-his (membrane distal end) and human CD33-C2-his (membrane proximal end), respectively, according to the ELISA method in Example 8. The VHH humanized antibodies were classified based on the membrane distal end and the membrane proximal end, as shown in FIGS. 20A-20J and Table 44, which allowed the classification of the VHH humanized antibodies into the following classes: […]

[5] = biological target: T4, human CD33-his protein (human, UniProt P20138 18-259); experiment: competition ELISA, coated human CD33-his, vs Biotin-C33B904 at EC80; antibody 1.95 nM
T4 construct: range 18-259; bought protein; also called hCD33-his; recombinant human CD33-his; not shown: His tag
Description: (§1) ELISA plates were coated with 2 μg/mL human CD33-his protein according to the method in Example 5.1; the Biotin-C331B904 antibody was subjected to a gradient dilution from 15 μg/mL, and EC80 values (0.18 μg/mL) were calculated. ELISA plates were coated with 2 μg/mL human CD33-his protein; starting from 40 μg/mL, the VHH antibodies to be tested were diluted in a 1:2 dilution ratio to obtain seven concentrations and added to the ELISA plates, and then Biotin-C331904 antibodies with the EC80 concentrations were added for incubation for 2 h. The plates were washed 5 times with PBS and then […] (purchased from Sigma, Cat. No. S2438) were added for incubation for 1 h, and the plates were washed 5 times. A TMB substrate was added at 50 μL/well and incubated at room temperature for 10 min, then a stop solution (1.0 M HCl) was added at 50 μL/well. OD_{450 nm} values were read using an ELISA plate reader (Insight, purchased from PerkinElmer). Then, analysis was performed by software (GraphPad Prism8), and data were fitted for curve plotting. The results are shown in FIGS. 13A-13B and Tables 28 and 29.

[6] = biological target: T4, human CD33-his protein; experiment: competition ELISA, coated human CD33-his, vs Biotin-C33B904 at EC80; antibody 0.49 nM
Description: as §1

[7] = biological target: T4, human CD33-his protein; experiment: as above; remark: listed apart in the source
Description: The plate was sealed with a plastic film and incubated at 4° C. overnight, washed twice with PBS the next day, and a blocking solution [PBS+2% (w/w) BSA] was added for blocking at room temperature for 2 h. The blocking solution was discarded, and VHH-Fc antibody or negative control antibody serially diluted from 100 nM was added at 50 μL/well. After incubation at 37° C. for 2 h, the plate was washed 3 times with PBS. A secondary antibody labeled with HRP (horseradish peroxidase) (purchased from Sigma, Cat. No. A0170) was added. After incubation for 1 h at 37° C., the plate was washed 5 times with PBS. A TMB substrate was added at 50 μL/well. After incubation at room temperature for 10 min, a stop solution (1.0 N HCl) was added at 50 μL/well. The OD450 nm values were read on an ELISA plate reader (Multimode Plate Reader, EnSight, purchased from Perkin Elmer). The assay results for the binding of the VHH-Fc to hCD33-his by ELISA are shown in FIGS. 7A and 7B and Tables 11 and 12. […] The IgG control was hIgG1, and the data in the table are OD450 nm values.
ELISA plates were coated with 2 μg/mL human CD33-his protein according to the method in Example 5.1; the Biotin-C331B904 antibody was subjected to a gradient dilution from 15 μg/mL, and EC80 values (0.18 μg/mL) were calculated. […] OD_{450 nm} values were read using an ELISA plate reader (Insight, purchased from PerkinElmer). […]

T4 sequence (P20138 18-259 limits assumed): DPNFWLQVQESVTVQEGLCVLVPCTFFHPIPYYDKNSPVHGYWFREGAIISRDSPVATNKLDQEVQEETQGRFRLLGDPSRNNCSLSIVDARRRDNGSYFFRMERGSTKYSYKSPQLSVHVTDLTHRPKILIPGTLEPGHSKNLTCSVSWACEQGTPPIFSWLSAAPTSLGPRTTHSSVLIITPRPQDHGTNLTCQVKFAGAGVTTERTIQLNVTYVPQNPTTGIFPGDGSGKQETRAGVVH
T1 sequence (P20138 18-364): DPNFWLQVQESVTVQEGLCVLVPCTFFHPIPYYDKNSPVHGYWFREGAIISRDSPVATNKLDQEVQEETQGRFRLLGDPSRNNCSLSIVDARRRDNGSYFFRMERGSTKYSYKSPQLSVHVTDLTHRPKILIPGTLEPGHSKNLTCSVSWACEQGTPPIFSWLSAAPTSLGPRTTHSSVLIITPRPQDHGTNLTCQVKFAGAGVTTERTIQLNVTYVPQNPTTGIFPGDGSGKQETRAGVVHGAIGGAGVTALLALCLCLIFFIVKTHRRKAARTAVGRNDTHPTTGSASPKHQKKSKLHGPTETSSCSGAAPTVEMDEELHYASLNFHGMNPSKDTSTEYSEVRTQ
T3 sequence (P20138 other isoform, or with tags, fused parts or gaps limits assumed): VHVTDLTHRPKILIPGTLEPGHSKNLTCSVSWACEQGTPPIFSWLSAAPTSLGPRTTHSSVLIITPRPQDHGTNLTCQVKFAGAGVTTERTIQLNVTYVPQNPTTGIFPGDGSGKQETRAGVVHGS
T2 sequence (P20138 18-259 limits assumed): as the sequence (P20138 18-259 limits assumed) above

| Binder | EC50 [1] [nM] | Max MFI [1] [MFI] | inhibition rate [2] [%] | EC50 (read off the curve) [3] [nM] | EC50 (read off the curve) [4] [nM] | OD450 (Biotin-C33B904 signal) [5] | OD450 (Biotin-C33B904 signal) [6] | OD450 (Biotin-C33B904 signal) [7] |
| --- | --- | --- | --- | --- | --- | --- | --- | --- |
| B1 | 12.6 | 682 | 100 | ~0.4 | ~0.2 |  |  |  |
| B2 |  |  |  |  |  | 2.02 | 2.26 | 2.44 |
